In article PMC8418782 (Molecular cell, 2021):

Columns and labels:
human Hsp90α [1] = biological target: T1, human Hsp90α (human, UniProt P07900 1-732); assay: SEC-MALS
human Hsp90α [2] = biological target: T1, human Hsp90α; assay: SEC-MALS; remark: listed apart in the source

B1: human p23 (natural protein)
chain: MQPASAKWYDRRDYVFIEFCVEDSKDVNVNFEKSKLTFSCLGGSDNFKHLNEIDLFHCIDPNDSKHKRTDRSILCCLRKGESGQSWPRLTKERAKLNWLSVDFNNWKDWEDDSDEDMSNFDRFSEMMNNMGGDEDVDLPEVDGADDDSQDSDDEKMPDLE
In the case of B1, the “stoichiometry N” value (human Hsp90α [1]) is reported as ~0.5 p23 per Hsp90 chain (Hsp90:FKBP51:p23 2:1:1).

B2: FKBP51 ΔH7e (Δ401–457) (domain or fragment, human, UniProt Q13451 1-400, looked up)
chain: MTTDEGAKNNEESPTATVAEQGEDITSKKDRGVLKIVKRVGNGEETPMIGDKVYVHYKGKLSNGKKFDSSHDRNEPFVFSLGKGQVIKAWDIGVATMKKGEICHLLCKPEYAYGSAGSLPKIPSNATLFFEIELLDFKGEDLFEDGGIIRRTKRKGEGYSNPNEGATVEIHLEGRCGGRMFDCRDVAFTVGEGEDHDIPIGIDKALEKMQREEQCILYLGPRYGFGEAGKPKFGIEPNAELIYEVTLKSFEKAKESWEMDTKEKLEQAAIVKEKGTVYFKGGKYMQAVIQYGKIVSWLEMEYGLSEKESKASESFLLAAFLNLAMCYLKLREYTKAVECCDKALGLDSANEKGLYRRGEAQLLMNEFESAKGDFEKVLEVNPQNKAARLQISMCQKKAKE
B2: binds (human Hsp90α [2]).

B3: FKBP51 N402K (natural protein, human, UniProt Q13451 1-457, looked up)
chain: MTTDEGAKNNEESPTATVAEQGEDITSKKDRGVLKIVKRVGNGEETPMIGDKVYVHYKGKLSNGKKFDSSHDRNEPFVFSLGKGQVIKAWDIGVATMKKGEICHLLCKPEYAYGSAGSLPKIPSNATLFFEIELLDFKGEDLFEDGGIIRRTKRKGEGYSNPNEGATVEIHLEGRCGGRMFDCRDVAFTVGEGEDHDIPIGIDKALEKMQREEQCILYLGPRYGFGEAGKPKFGIEPNAELIYEVTLKSFEKAKESWEMDTKEKLEQAAIVKEKGTVYFKGGKYMQAVIQYGKIVSWLEMEYGLSEKESKASESFLLAAFLNLAMCYLKLREYTKAVECCDKALGLDSANEKGLYRRGEAQLLMNEFESAKGDFEKVLEVNPQNKAARLQISMCQKKAKEHKERDRRIYANMFKKFAEQDAKEEANKAMGKKTSEGVTNEKGTDSQAMEEEKPEGHV
B3: binds (human Hsp90α [2]).
